Results published in IntAct's records for PubMed 17548836.

B1: Bone morphogenetic protein 1 (Homo sapiens), P13497 (parent)
chain: MPGVARLPLLLGLLLLPRPGRPLDLADYTYDLAEEDDSEPLNYKDPCKAAAFLGDIALDEEDLRAFQVQQAVDLRRHTARKSSIKAAVPGNTSTPSCQSTNGQPQRGACGRWRGRSRSRRAATSRPERVWPDGVIPFVIGGNFTGSQRAVFRQAMRHWEKHTCVTFLERTDEDSYIVFTYRPCGCCSYVGRRGGGPQAISIGKNCDKFGIVVHELGHVVGFWHEHTRPDRDRHVSIVRENIQPGQEYNFLKMEPQEVESLGETYDFDSIMHYARNTFSRGIFLDTIVPKYEVNGVKPPIGQRTRLSKGDIAQARKLYKCPACGETLQDSTGNFSSPEYPNGYSAHMHCVWRISVTPGEKIILNFTSLDLYRSRLCWYDYVEVRDGFWRKAPLRGRFCGSKLPEPIVSTDSRLWVEFRSSSNWVGKGFFAVYEAICGGDVKKDYGHIQSPNYPDDYRPSKVCIWRIQVSEGFHVGLTFQSFEIERHDSCAYDYLEVRDGHSESSTLIGRYCGYEKPDDIKSTSSRLWLKFVSDGSINKAGFAVNFFKEVDECSRPNRGGCEQRCLNTLGSYKCSCDPGYELAPDKRRCEAACGGFLTKLNGSITSPGWPKEYPPNKNCIWQLVAPTQYRISLQFDFFETEGNDVCKYDFVEVRSGLTADSKLHGKFCGSEKPEVITSQYNNMRVEFKSDNTVSKKGFKAHFFSDKDECSKDNGGCQQDCVNTFGSYECQCRSGFVLHDNKHDCKEAGCDHKVTSTSGTITSPNWPDKYPSKKECTWAISSTPGHRVKLTFMEMDIESQPECAYDHLEVFDGRDAKAPVLGRFCGSKKPEPVLATGSRMFLRFYSDNSVQRKGFQASHATECGGQVRADVKTKDLYSHAQFGDNNYPGGVDCEWVIVAEEGYGVELVFQTFEVEEETDCGYDYMELFDGYDSTAPRLGRYCGSGPPEEVYSAGDSVLVKFHSDDTITKKGFHLRYTSTKFQDTLHSRK
partner: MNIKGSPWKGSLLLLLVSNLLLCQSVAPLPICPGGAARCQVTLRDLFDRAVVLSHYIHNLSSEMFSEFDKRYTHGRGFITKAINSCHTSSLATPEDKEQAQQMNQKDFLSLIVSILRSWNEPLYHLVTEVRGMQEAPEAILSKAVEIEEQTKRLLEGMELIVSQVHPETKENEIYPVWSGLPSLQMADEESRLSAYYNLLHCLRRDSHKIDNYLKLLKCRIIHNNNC
B2: Bone morphogenetic protein 1 (Homo sapiens), P13497 (parent)
chain: B1 chain

Variants of: B1
Conditions: with prl_human PRL

| Variant | effect of a mutation on the interaction |
| --- | --- |
| E214A | disrupting interaction strength |

Variants of: B2
Conditions: with soma_human GH1, P01241
Sequence of soma_human GH1, P01241 (P01241 whole entry): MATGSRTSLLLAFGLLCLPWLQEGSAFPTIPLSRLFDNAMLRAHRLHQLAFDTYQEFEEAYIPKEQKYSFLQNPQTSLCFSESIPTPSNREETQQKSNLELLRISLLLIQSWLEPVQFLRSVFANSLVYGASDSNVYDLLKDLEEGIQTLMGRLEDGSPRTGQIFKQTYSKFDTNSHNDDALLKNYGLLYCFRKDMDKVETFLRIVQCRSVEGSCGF

| Variant | effect of a mutation on the interaction |
| --- | --- |
| E214A | disrupting interaction strength |
